{"source": "paper PMC3590443", "about": "(Nature structural & molecular biology, 2012)", "binders": {"B1": {"name": "Nrp1_(1-4) (mouse Nrp1 residues 22-586) (domain or fragment, UniProt P97333 22-586, looked up)", "chain": "FRSDKCGGTIKIENPGYLTSPGYPHSYHPSEKCEWLIQAPEPYQRIMINFNPHFDLEDRDCKYDYVEVIDGENEGGRLWGKFCGKIAPSPVVSSGPFLFIKFVSDYETHGAGFSIRYEIFKRGPECSQNYTAPTGVIKSPGFPEKYPNSLECTYIIFAPKMSEIILEFESFDLEQDSNPPGGMFCRYDRLEIWDGFPEVGPHIGRYCGQKTPGRIRSSSGVLSMVFYTDSAIAKEGFSANYSVLQSSISEDFKCMEALGMESGEIHSDQITASSQYGTNWSVERSRLNYPENGWTPGEDSYKEWIQVDLGLLRFVTAVGTQGAISKETKKKYYVKTYRVDISSNGEDWISLKEGNKAIIFQGNTNPTDVVLGVFSKPLITRFVRIKPVSWETGISMRFEVYGCKITDYPCSGMLGMVSGLISDSQITASNQADRNWMPENIRLVTSRTGWALPPSPHPYTNEWLQVDLGDEKIVRGVIIQGGKHRENKVFMRKFKIAYSNNGSDWKTIMDDSKRKAKSFEGNNNYDTPELRTFSPLSTRFIRIYPERATHSGLGLRMELLGCEVE"}, "B2": {"name": "Sema3AS-P (mouse Sema3A residues 21-568, furin site mutated R551A and R555A) (domain or fragment, UniProt O08665 21-568, looked up)", "chain": "NYANGKNNVPRLKLSYKEMLESNNVITFNGLANSSSYHTFLLDEERSRLYVGAKDHIFSFNLVNIKDFQKIVWPVSYTRRDECKWAGKDILKECANFIKVLEAYNQTHLYACGTGAFHPICTYIEVGHHPEDNIFKLQDSHFENGRGKSPYDPKLLTASLLIDGELYSGTAADFMGRDFAIFRTLGHHHPIRTEQHDSRWLNDPRFISAHLIPESDNPEDDKVYFFFRENAIDGEHSGKATHARIGQICKNDFGGHRSLVNKWTTFLKARLICSVPGPNGIDTHFDELQDVFLMNSKDPKNPIVYGVFTTSSNIFKGSAVCMYSMSDVRRVFLGPYAHRDGPNYQWVPYQGRVPYPRPGTCPSKTFGGFDSTKDLPDDVITFARSHPAMYNPVFPINNRPIMIKTDVNYQFTQIVVDRVDAEDGQYDVMFIGTDVGTVLKVVSVPKETWHDLEEILLEEMTVFREPTTISAMELSTKQQQLYIGSTAGVAQLPLHRCDIYGKACAECCLARDPYCAWDGSSCSRYFPTAKARTRAQDIRNGDPLTHCS"}, "B3": {"name": "Sema3AS-P L353N P355S (domain or fragment, mouse, UniProt O08665 21-568, looked up)", "chain": "B2 chain with L333N, P335S"}, "B4": {"name": "PlxnA2_(1-4) (mouse PlxnA2 residues 35-703) (domain or fragment, UniProt P70207 35-703, looked up)", "chain": "MPQYSTFHSENRDWTFNHLTVHRRTGAVYVGAINRVYKLTGNLTIQVAHKTGPEEDNKACYPPLIVQPCSEVLTLTNNVNKLLIIDYSENRLLACGSLYQGVCKLLRLDDLFILVEPSHKKEHYLSSVNKTGTMYGVIVRSEGEDGKLFIGTAVDGKQDYFPTLSSRKLPRDPESSAMLDYELHSDFVSSLIKIPSDTLALVSHFDIFYIYGFASGGFVYFLTVQPETPDGMAINSAGDLFYTSRIVRLCKDDPKFHSYVSLPFGCTRAGVEYRLLQAAYLAKPGEALAQAFNISSDEDVLFAIFSKGQKQYHHPPDDSALCAFPIRAINLQIKERLQSCYHGEGNLELNWLLGKDVQCTKAPVPIDDNFCGLDINQPLGGSTPVEGLTLYTTSRDRLTSVASYVYNGYSVVFVGTKSGKLKKIRADGPPHGGVQYEMVSVFKDGSPILRDMAFSINQLYLYVMSERQVTRVPVESCEQYTTCGECLSSGDPHCGWCALHNMCSRRDKCQRAWEANRFAASISQCMSLEVHPNSISVSDHSRLLSLVVNDAPNLSEGIACAFGNLTEVEGQVSGSQVICISPGPKDVPVIPLDQDWFGLELQLRSKETGKIFVSTEFKFYNCSAHQLCLSCVNSAFRCHWCKYRNLCTHDPTTCSFQEGRINVSEDCPQ"}}, "assay_in_all_cases": "SPR", "key": {"PlxnA2_(1-4) F275N": {"target": "T1, PlxnA2_(1-4) F275N (mouse, UniProt P70207 35-703, F275N)", "T1 sequence (looked up)": "B4 chain with F241N"}, "Nrp1_(1-4) P73A H74S": {"target": "T2, Nrp1_(1-4) P73A H74S (mouse, UniProt P97333 22-586, P73A | H74S)", "T2 sequence (looked up)": "B1 chain with P52A, H53S"}, "[1]": {"target": "B1"}, "[2]": {"target": "T3, Sema3AS-F with Nrp1_(1-4) (combination in the experiment with EDTA) (mouse, UniProt O08665 21-555; P97333 22-586)", "T3 sequence (looked up) 1": "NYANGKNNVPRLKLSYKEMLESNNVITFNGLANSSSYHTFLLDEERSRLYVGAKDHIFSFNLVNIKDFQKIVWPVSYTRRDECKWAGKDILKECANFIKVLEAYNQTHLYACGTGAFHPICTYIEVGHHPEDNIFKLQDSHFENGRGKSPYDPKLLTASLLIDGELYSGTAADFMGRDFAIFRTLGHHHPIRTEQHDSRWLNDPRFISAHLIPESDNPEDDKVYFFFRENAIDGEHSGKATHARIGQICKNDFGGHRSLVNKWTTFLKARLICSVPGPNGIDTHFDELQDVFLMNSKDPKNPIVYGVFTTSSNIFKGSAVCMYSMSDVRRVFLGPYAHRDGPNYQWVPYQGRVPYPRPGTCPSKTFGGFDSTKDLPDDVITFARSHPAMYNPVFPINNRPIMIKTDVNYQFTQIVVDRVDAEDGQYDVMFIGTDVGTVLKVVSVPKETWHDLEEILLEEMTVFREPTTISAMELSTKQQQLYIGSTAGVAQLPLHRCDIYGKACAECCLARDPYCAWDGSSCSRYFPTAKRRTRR", "T3 sequence (looked up) 2": "B1 chain"}}, "note": "Changes are numbered by the printed parent chain. Names and notes keep the numbering of the source."}
{"binder": "B1", "values": [{"measurement": "binding result", "setting": "PlxnA2_(1-4) F275N", "result": "binds"}]}
{"binder": "B2", "values": [{"measurement": "binding result", "setting": "Nrp1_(1-4) P73A H74S", "result": "binds"}]}
{"binder": "B3", "values": [{"measurement": "binding result", "setting": "[1]", "result": "binds"}]}
{"binder": "B4", "values": [{"measurement": "binding result", "setting": "[2]", "result": "binds"}]}
